In patent publication US20240059799A1 (Pfizer, published 2024):

Molecular target: T1, recombinant human TL1A (human, UniProt O95150 71-251)
T1 construct: homotrimer; biotinylated for SPR capture; the ELISA paragraphs say only 'recombinant TL1A'; also called TNFSF15
T1 chain: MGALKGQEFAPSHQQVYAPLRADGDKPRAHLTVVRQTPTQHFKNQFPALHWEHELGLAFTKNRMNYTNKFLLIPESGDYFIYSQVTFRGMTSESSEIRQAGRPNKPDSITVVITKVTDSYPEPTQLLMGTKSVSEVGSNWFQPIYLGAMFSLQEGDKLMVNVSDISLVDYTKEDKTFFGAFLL
Assay: SPR, antibody injected over captured biotinylated human TL1A
Protocol: An SPR assay was also used to determine whether the [xTL1A] bivalent antibody variants could bind recombinant human TL1A. […] A high concentration (1 μM) of [xTL1A] variant antibodies were injected in assay buffer (HBS-EP+, pH 7.4, Cytiva, product number BR100669).

binding result: no binding (tested: 1 µM)
B1: [xTL1A]-0349 bivalent antibody (antibody, human IgG1, kappa, V domains shown)
VH: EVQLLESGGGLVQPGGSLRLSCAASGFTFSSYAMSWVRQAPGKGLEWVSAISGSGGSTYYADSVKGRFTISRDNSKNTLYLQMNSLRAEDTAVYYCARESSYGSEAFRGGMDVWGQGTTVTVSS
VL: DIQMTQSPSSLSASVGDRVTITCRASQSVSSYLAWYQQKPGKAPKLLIYDASNRATGVPSRFSGSGSGTDFTLTISSLQPEDFATYYCQQRSNWPWTFGQGTKVEIKR
notes: disabled (null) bivalent IgG1/kappa
